Holding throughout (assay): ELISA, lysate on plate-bound antigen
Experiment [1] concerns the target T1, recombinant biotinylated PD-L1 (rhPD-L1/Fc Chimera, R&D Systems 156-B7) (human, UniProt Q9NZQ7 19-238, biotinylated (sites not given)).
T1 construct: Bought Fc chimera; also called human PD-L1
Summed up: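 On streptavidin plates coated with biotinylated PD-L1 (unrelated Fc-fusion protein and HSA as negative controls), diluted lysate was applied for 1 h. Bound FN3 domains detected with HRP-conjugated anti-FN3 antibody and POD substrate.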

The target of experiment [2] is unrelated Fc-fused recombinant protein.
The target in experiment [3] is human serum albumin (human) (UniProt P02768).
Sequence of human serum albumin (human) (P02768 25-609 limits assumed): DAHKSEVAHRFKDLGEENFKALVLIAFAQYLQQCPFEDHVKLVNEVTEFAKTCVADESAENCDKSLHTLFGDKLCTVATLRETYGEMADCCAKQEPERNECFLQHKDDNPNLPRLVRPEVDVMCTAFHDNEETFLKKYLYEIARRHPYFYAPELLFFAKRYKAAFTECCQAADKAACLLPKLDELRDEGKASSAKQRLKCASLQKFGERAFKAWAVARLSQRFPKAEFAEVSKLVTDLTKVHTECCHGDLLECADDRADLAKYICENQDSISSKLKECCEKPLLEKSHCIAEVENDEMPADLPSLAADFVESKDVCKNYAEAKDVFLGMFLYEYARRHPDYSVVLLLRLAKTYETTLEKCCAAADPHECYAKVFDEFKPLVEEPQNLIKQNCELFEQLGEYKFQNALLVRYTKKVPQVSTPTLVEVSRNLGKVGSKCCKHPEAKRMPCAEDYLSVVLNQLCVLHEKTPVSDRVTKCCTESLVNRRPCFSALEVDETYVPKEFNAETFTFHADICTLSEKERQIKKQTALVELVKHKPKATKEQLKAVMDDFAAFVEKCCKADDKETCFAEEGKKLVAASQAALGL
The target of experiment [4] is unrelated Fc-fused recombinant protein. The source holds these as a separate data set.

Like-named read-outs stand apart in the source and are kept apart here.

T1 sequence (Q9NZQ7 19-238, change not shown): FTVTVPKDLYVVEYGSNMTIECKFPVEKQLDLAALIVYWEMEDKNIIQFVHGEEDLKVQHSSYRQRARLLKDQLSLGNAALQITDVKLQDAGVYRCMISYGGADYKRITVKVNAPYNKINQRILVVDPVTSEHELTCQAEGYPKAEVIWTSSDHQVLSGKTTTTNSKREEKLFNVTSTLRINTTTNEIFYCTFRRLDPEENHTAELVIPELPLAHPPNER

B1: ISOP121BR5P1C3 (designed binder, not shown: small tags and cut ends)
chain: LPAPKNLVVSRVTEDSARLSWASARDYFDSFLIQYQESEKVGEAIVLTVPGSERSYDLTGLKPGTEYTVSIYGVLAIAQITHWFSNPLSAIFTT
notes: FN3 domain; E. coli lysate in the ELISA
In the case of B1, in experiment [1], the “ELISA PD-L1 Fc (RSU)” value was found to be 177000 RSU. The ELISA Fc Control (RSU) in experiment [2] was 640 RSU. The molecule also registered an ELISA HSA (RSU) in experiment [3] of 480 RSU.

B2: ISOP121GR5P1G11 (designed binder, not shown: small tags and cut ends)
chain: LPAPKNLVVSRVTEDSARLSWTAPDAAFDSFQINYHEYGQNGEAIQLIVPGSERSYDLTGLKPGTEYGVWIWGVKGGIRSKPLWAFFTT
notes: as for B1
In the case of B2, in experiment [1], the “ELISA PD-L1 Fc (RSU)” value was determined as 240000 RSU. In experiment [2], the ELISA Fc Control (RSU) is 960 RSU. In addition, in experiment [3], the ELISA HSA (RSU) is 1040 RSU.

B3: ISOP121AR5P1G10 (designed binder, not shown: small tags and cut ends)
chain: LPAPKNLVVSRVTEDSARLSWEWLEHFDSFLIQYQESEKVGEAIVLTVPGSERSYDLTGLKPGTEYTVSIYGVYQRKVEFHSNPLSAIFTTT
notes: as for B1
In the case of B3, the “ELISA PD-L1 Fc (RSU)” value in experiment [1] stood at 232000 RSU. In experiment [2], the ELISA Fc Control (RSU) amounted to 1360 RSU. This molecule also returned an ELISA HSA (RSU) in experiment [3] of 1280 RSU.

B4: ISOP121BR5P1D1 (designed binder, not shown: small tags and cut ends)
chain: LPAPKNLVVSRVTEDSARLSWKWGGEFFDSFLIQYQESEKVGEAIVLTVPGSERSYDLTGLKPGTEYTVSIYGVYQRNWHHWYSNPLSAIFTT
notes: as for B1
B4: the “ELISA PD-L1 Fc (RSU)” value in experiment [1] worked out at 186000 RSU. Moreover, the ELISA Fc Control (RSU) in experiment [2] was 1040 RSU. Besides, the ELISA HSA (RSU) in experiment [3] amounted to 960 RSU.

B5: ISOP194BR9P1A9 (designed binder, not shown: small tags and cut ends)
chain: LPAPKNLVVSRVTEDSARLSWFNADEEYFDSFLIQYQESEKVGEAIVLTVPGSERSYDLTGLKPGTEYTVSIYGVYDRKVKFVQSNPLSAIFTT
notes: as for B1
As to B5, in experiment [1], the “ELISA PD-L1 Fc (RSU)” value was found to be 1.9e+07 RSU. In addition, the ELISA Fc Control (RSU) in experiment [4] is 2320 RSU.

B6: ISOP121BR5P1E2 (designed binder, not shown: small tags and cut ends)
chain: LPAPKNLVVSRVTEDSARLSWWFPLEWFDSFLIQYQESEKVGEAIVLTVPGSERSYDLTGLKPGTEYTVSIYGVYTREHKSVWASNPLSAIFTT
notes: as for B1
Turning to B6, the “ELISA PD-L1 Fc (RSU)” value in experiment [1] stood at 137000 RSU. Moreover, in experiment [2], the ELISA Fc Control (RSU) was found to be 800 RSU. This molecule also yielded an ELISA HSA (RSU) in experiment [3] of 720 RSU.

B7: ISOP121BR5P1C9 (designed binder, not shown: small tags and cut ends)
chain: LPAPKNLVVSRVTEDSARLSWIWPDKHEFFDSFLIQYQESEKVGEAIVLTVPGSERSYDLTGLKPGTEYTVSIYGVYDRKYANWSSNPLSAIFTT
notes: as for B1
In the case of B7, the “ELISA PD-L1 Fc (RSU)” value in experiment [1] came out at 226000 RSU. The ELISA Fc Control (RSU) in experiment [2] is 1120 RSU. This molecule registered an ELISA HSA (RSU) in experiment [3] of 1040 RSU.

B8: ISOP194AR9P1H10 (designed binder, not shown: small tags and cut ends)
chain: LPAPKNLVISRVTEDSARLSWPAHYHSAFFDSFLIQYQESEKVGEAIVLTVPGSERSYDLTGLKPGTEYTVSIYGVYQRKVEFHSNPLSAIFTT
notes: as for B1
For the molecule B8, the “ELISA PD-L1 Fc (RSU)” value in experiment [1] turned out to be 5.21e+06 RSU. The ELISA Fc Control (RSU) in experiment [4] is 4400 RSU.

B9: ISOP121BR5P1A6 (designed binder, not shown: small tags and cut ends)
chain: LPAPKNLVVSRVTEDSARLSWASWLVAFFDSFLIQYQESEKVGEAIVLTVPGSERSYDLTGLKPGTEYTVSIYGVYQRHASAFVSNPLSAIFTT
notes: as for B1
For B9, the “ELISA PD-L1 Fc (RSU)” value in experiment [1] is 11000 RSU. In experiment [2], the ELISA Fc Control (RSU) was found to be 720 RSU. This molecule gave an ELISA HSA (RSU) in experiment [3] of 720 RSU.

B10: ISOP121AR5P1F3 (designed binder, not shown: small tags and cut ends)
chain: LPAPKNLVVSRVTEDSARLSWPFNNYSEHFDSFLIQYQESEKVGEAIVLTVPGSERSYDLTGLKPGTEYTVSIYGVYERKTAFYSNPLSAIFTT
notes: as for B1
On to B10, for which the “ELISA PD-L1 Fc (RSU)” value in experiment [1] was 180000 RSU. Besides, the ELISA Fc Control (RSU) in experiment [2] is 800 RSU. Besides, the ELISA HSA (RSU) in experiment [3] was 960 RSU.

B11: ISOP121ER5P1E7 (designed binder, not shown: small tags and cut ends)
chain: LPAPKNLVVSRVTEDSARLSWTAPDAAFDSFTIGYTETPPRGEAIVLTVPGSERSYDLTGLKPGTKYYVSILGVKGGLGSWPLSAIFTT
notes: as for B1
B11: the “ELISA PD-L1 Fc (RSU)” value in experiment [1] worked out at 251000 RSU. Further, the ELISA Fc Control (RSU) in experiment [2] is 480 RSU. In experiment [3], this molecule showed an ELISA HSA (RSU) of 560 RSU.

The values are drawn from patent US20180162928A1 (Janssen / Centocor, published 2018).
